In paper PMC10702856 (Antibody Therapeutics, 2023):

B1: ADAH14 (VHH)
VHH: QVQLQESGGGLVQAGGSLRLSCAASGSYFFHALMGWFRQAPVKEREFVASITAVPGATYYRRCTDSVKGRFTISRDNAKNTVYLQMNSLKPEDTAVYYCALATHSNRHTPITYWGQGTQVTVSS
B2: ADAH15 (VHH)
VHH: QVQLQESGGGLVQAGGSLRLSCAASGTTYLAANMGWFRQAPGKEREFVAAITFFHNPTVYYADSVKGRFTISRDNAKNTVYLQMNSLKPEDTAVYYCAATVLVRDRIHFSHSIGIRYWGQGTQVTVSS

Columns and labels:
[1] = target: ADDoCoV (ADDomer-COVID-19 vaccine) nanoparticle (human adenovirus serotype Ad3 | …, UniProt P0DTC2)
[2] = target: SARS-CoV-2 S receptor binding domain, Ancestral (SARS-CoV-2, Ancestral strain, UniProt P0DTC2)

| Binder | binding result [1] | binding result [2] |
| --- | --- | --- |
| B1 | binds | binds |
| B2 | binds | binds |
